Patent publication US20050074758A1
Blank lines part the entries; values can stand above or below the binder they belong to.

What was measured:
[1] = molecular target: prokineticin receptor expressed endogenously on M2A7 melanoma cells (ATCC CRL-2500); test: cell-based or functional assay
[2] = molecular target: prokineticin receptor(s) of guinea pig ileum (ileal membranes; ileal longitudinal smooth muscle) (guinea pig); test: cell-based or functional assay
[3] = molecular target: prokineticin receptor(s) of guinea pig ileum (ileal membranes; ileal longitudinal smooth muscle) (guinea pig); test: displacement of 125I-prokineticin 1 (20 pM) from guinea pig ileal membranes, low-affinity site
[4] = molecular target: prokineticin receptor(s) of guinea pig ileum (ileal membranes; ileal longitudinal smooth muscle) (guinea pig); test: displacement of 125I-prokineticin 1 (20 pM) from guinea pig ileal membranes, high-affinity site
[5] = molecular target: prokineticin receptor(s) of guinea pig ileum (ileal membranes; ileal longitudinal smooth muscle) (guinea pig); test: competition radioligand binding on guinea pig ileal membranes, filtration; displaced tracer 125I-prokineticin 1 (20 pM)
[6] = molecular target: prokineticin receptor(s) of guinea pig ileum (ileal membranes; ileal longitudinal smooth muscle) (guinea pig); test: displacement of 125I-prokineticin 1 (20 pM) from guinea pig ileal membranes, two-site model, low-affinity site
[7] = molecular target: prokineticin receptor(s) of guinea pig ileum (ileal membranes; ileal longitudinal smooth muscle) (guinea pig); test: displacement of 125I-prokineticin 1 (20 pM) from guinea pig ileal membranes, two-site model, high-affinity site
[8] = molecular target: prokineticin receptor(s) of guinea pig ileum (ileal membranes; ileal longitudinal smooth muscle) (guinea pig); test: saturation binding of 125I-prokineticin 1 to guinea pig ileal membranes, two-site model, low-affinity site
[9] = molecular target: prokineticin receptor(s) of guinea pig ileum (ileal membranes; ileal longitudinal smooth muscle) (guinea pig); test: saturation binding of 125I-prokineticin 1 to guinea pig ileal membranes, two-site model, high-affinity site
[10] = molecular target: prokineticin receptor(s) of guinea pig ileum (ileal membranes; ileal longitudinal smooth muscle) (guinea pig); test: saturation binding of 125I-prokineticin 1 to guinea pig ileal membranes, Scatchard analysis, two-site model, low-affinity site
[11] = molecular target: prokineticin receptor(s) of guinea pig ileum (ileal membranes; ileal longitudinal smooth muscle) (guinea pig); test: saturation binding of 125I-prokineticin 1 to guinea pig ileal membranes, Scatchard analysis, two-site model, high-affinity site

EC50 of calcium mobilization in M2A7 melanoma cells (FLIPR) [1]: 21 nM
ED50 of contraction of guinea-pig ileum longitudinal muscle [2]: 0.9 nM
time constant to midway contraction of ileal strips [2]: 15 min
Ki [3]: 1.22 nM
Ki [4]: 0.0042 nM
IC50 (read off the curve) [5]: 4 nM
B1: recombinant refolded human prokineticin 2 (unlabeled), 6×His-tagged (ligand)
chain: AVITGACDKDSQCGGGMCCAVSIWVKSIRICTPMGKLGDSCHPLTRKVPFFGRRMHHTCPCLPGLACLRTSFNRFICLAQKHHHHHH

EC50 of ileal contraction, fold against prokineticin 1 or prokineticin 2 [2]: 8 fold
time constant to midway contraction of ileal strips [2]: 40 min
B2: chimeric prokineticin 21 (exons 1 and 2 of prokineticin 2, exon 3 of prokineticin 1) (ligand)
chain: AVITGACDKDSQCGGGMCCAVSIWVKSIRICTPMGKLGDSCHPLTRKVPFFRKRKHHTCPCLPNLLCSRFPDGRYRCSMDLKNINF

EC50 of calcium mobilization in M2A7 melanoma cells (FLIPR) [1]: 12 nM
ED50 of contraction of guinea-pig ileum longitudinal muscle [2]: 0.46 nM
time constant to midway contraction of ileal strips [2]: 15 min
Ki [6]: 1.5 nM
Ki [7]: 0.008 nM
IC50 (read off the curve) [5]: 5 nM
B3: recombinant refolded human prokineticin 1 (unlabeled), 6×His-tagged (ligand)
chain: AVITGACERDVQCGAGTCCAISLWLRGLRMCTPLGREGEECHPGSHKVPFFRKRKHHTCPCLPNLLCSRFPDGRYRCSMDLKNINFHHHHHH

Bmax (fmol/mg of protein) [8]: 26.4
Bmax (fmol/mg of protein) [9]: 7.8
Kd [10]: 0.227 nM
Kd [11]: 0.005 nM
B4: 125I-prokineticin 1 (iodinated recombinant human prokineticin 1) (ligand)
chain: B3 chain
modifications: 125I label by the iodogen method; iodinated residue(s) not stated

time constant to midway contraction of ileal strips [2]: 40 min
B5: chimeric prokineticin 12 (exons 1 and 2 of prokineticin 1, exon 3 of prokineticin 2) (ligand)
chain: AVITGACERDVQCGAGTCCAISLWLRGLRMCTPLGREGEECHPGSHKVPFFGRRMHHTCPCLPGLACLRTSFNRFICLAQK
